{
  "source": "paper PMC7287642",
  "about": "“SPR Biosensor Based on Polymer Multi-Mode Optical Waveguide and Nanoparticle Signal Enhancement”",
  "binders": {"B1": {"name": "Apt1 (anti-CRP aptamer) (ssDNA)", "DNA": "GGCAGGAAGACAAACACGATGGGGGGGTATGATTTGATGTGGTTGTTGCATGATCGTGGTTGTGGTGCTGT", "modifications": "5'-biotin"}},
  "target": "T1, C-reactive protein (CRP) (human, UniProt P02741 19-224)",
  "T1 sequence": "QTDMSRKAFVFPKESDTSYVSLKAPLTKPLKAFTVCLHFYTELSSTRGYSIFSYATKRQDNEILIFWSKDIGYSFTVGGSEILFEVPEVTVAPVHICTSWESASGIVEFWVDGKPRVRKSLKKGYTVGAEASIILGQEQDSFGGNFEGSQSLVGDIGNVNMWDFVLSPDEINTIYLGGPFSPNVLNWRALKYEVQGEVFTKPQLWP",
  "assay": "SPR (AuNP-enhanced aptamer sandwich); Apt1 on sensor and on 17 nm AuNPs; 2 mM Ca2+, 10 mM Mg2+; response 0.118 nm/nM; no shift detected with CRP alone before AuNPs; 10 mM Tris, 50 mM NaCl, 2 mM CaCl2, 10 mM MgCl2, 5 mM KCl, pH 7.5; CRP 30 min, AuNPs 10 min; readout in H2O; binding temperature not stated",
  "conditions": "protein: native; chain copies: 5",
  "data": [
    {"binder": "B1", "values": [
      {"measurement": "binding result", "result": "binds"}
    ]}
  ]
}
